Experimental data from PMC11452509.

Experiments:
Test in all cases: SPR
[1] = biological target: trastuzumab produced in CHO-K1 cells (human (detected with anti human IgG (H + L)))
[2] = biological target: trastuzumab produced in CHO-gmt13 cells (human (detected with anti human IgG (H + L)))
[3] = biological target: trastuzumab produced in CHO-gmt21 cells (human (detected with anti human IgG (H + L)))
[4] = biological target: trastuzumab produced in CHO-gmt8 cells (human (detected with anti human IgG (H + L)))
[5] = biological target: trastuzumab produced in CHO-gmt9 cells (human (detected with anti human IgG (H + L)))

Kd [1]: 560 nM | Kd [2]: 780 nM | Kd [3]: 799 nM | Kd [4]: 200 nM | Kd [5]: 80 nM
Substance: extracellular domain of human FcγRIIIa with a His-tag (from UniProt P08637 17-208) (receptor)
